Paper PMC4541722

What was measured:
[1] = test system: Nc1ccn([C@@H]2O[C@H](CO)[C@@H](O)C2(F)F)c(=O)n1; test: purified protein; format: biochemical, Mesomycoplasma hyorhinis; settings: PBS, 37 °C, 10 min, 4 nM enzyme, fit up to 30 mM substrate, second KM at very high concentrations not determined
[2] = test system: Nc1ccn([C@H]2C[C@H](O)[C@@H](CO)O2)c(=O)n1; test: purified protein; format: biochemical, Mesomycoplasma hyorhinis; settings: PBS, 37 °C, 10 min, 4 nM enzyme

Substance “CDAHyor (M. hyorhinis cytidine deaminase) (Mesomycoplasma hyorhinis MCLD)” has a Km [1] of 9.064 ± 1.487 mM, a kcat [1] of 105 ± 7 s⁻¹ and a kcat/Km [1] of 12000 M⁻¹ s⁻¹. It also gave a Km [2] of 2.586 ± 0.114 mM, a kcat [2] of 127 ± 2 s⁻¹ and a kcat/Km [2] of 49000 M⁻¹ s⁻¹.
